This is an account of results in PMC6123711, “Conformational signatures in β-arrestin2 reveal natural biased agonism at a G-protein-coupled receptor” (Communications Biology, 2018).

What all share (type): cell-based, human
Assay [1] deals with Galr2–β-arrestin2–clathrin complex. The experiment in a line: β-arrestin2–clathrin interactions (NanoBit). The conditions noted are these: for Log(τ/KA), Clathrin:β-arrestin2 / formation of Galr2–β-arrestin2–clathrin complex: data at 5 min after agonist; for Log(τ/KA), Clathrin:β-arrestin2: operational model (Eq. 2); for Log(τ/KA), Clathrin:β-arrestin2 / ΔLog(τ/KA), Clathrin:β-arrestin2: mean ± s.e.m. of three experiments in triplicate; for formation of Galr2–β-arrestin2–clathrin complex: dose–response, normalized to Galanin; for ΔLog(τ/KA), Clathrin:β-arrestin2: normalized to Galanin (reference agonist), in parenthesis. The text has this:
The interaction between β-arrestin2 and clathrin induced by the activation of Galr2 was examined using the NanoBit technology. We measured real-time association of the protein complex Galr2–β-arrestin2–clathrin. We constructed β-arrestin2 and clathrin subunit A tagged with LgBit or SmBit at the C or N termini and screened eight different plasmid combinations, out of which only one combination (β-arrestin2–LgBit:SmBit–clathrin) responded to ligand stimulation (Fig. 3, Supplementary Fig. 3). Before ligand stimulation, Galr2, β-arrestin2, and clathrin were not in close proximity and so the basal luminescence was very low. […] A time course experiment was initially performed to determine the time at which the maximal increase in luminescence occurred following agonist stimulation. All ligands except for Fmoc-dA4-dQ14 induced different fold increase in luminescence immediately after ligand treatment (Fig. 3b). […] Galanin- and Spexin-induced increases in luminescence were attenuated by pretreatment of cmpd101, a G-protein-coupled receptor kinase 2/3 (GRK2/3) inhibitor, indicating contribution of GRK2/3 in the formation of Galr2–β-arrestin2–clathrin complex (Fig. 3).
The arrows indicate the time when the cells were treated with different ligands. […] The results are expressed as mean ± s.e.m. of three experiments performed in triplicate. Each triplicate was averaged before calculating the s.e.m.
(§1) Quantification of bias between each pathway was performed using Galanin as a reference ligand. All incubations for the different signaling assays were performed in serum-free medium to prevent peptide degradation.
One day before transfection, cells were seeded in 96-well plates at a density of 2.5 × 10^4 cells per well. A mixture containing 35 ng β-arrestin construct containing the LgBit or SmBit, 35 ng clathrin subunit A containing one of the two domains of Nluc and 30 ng untagged receptor, and 0.2 μl Lipofectamine 2000 (Invitrogen) was prepared and added to each well. We followed the assay manufacturer’s instructions and tested eight β-arrestin-clathrin plasmid combinations. In only one plasmid combination we were able to observe luminescent signal and it was chosen for further experiments. At 24 h post transfection, medium was aspirated and replaced with 100 μl OPTIMEM at room temperature. After a 10-min incubation, 25 μl substrate (furimazine) was added and the luminescence was monitored once every minute for 10 min. Then, 10 μl ligand was added to each well and the luminescence values were recorded immediately and once every minute for 1 h (Synergy 2 Multi-Mode Microplate Reader BioTek).

Assay [2] relates to Galr2. The assay can be described thus: Gαq-dependent Erk1/2 phosphorylation (β-arrestin1/2-knockout HEK293 cells). The conditions noted are these: for ΔLog(τ/KA), Gαq-dependent-pErk1/2: normalized to Galanin (reference agonist), in parenthesis, mean ± s.e.m. of three experiments in triplicate; for Log(τ/KA), Gαq-dependent-pErk1/2: western blot, 5 min stimulation, operational model (Eq. 2), mean ± s.e.m. of three experiments in triplicate (table footnote). The text has this: (§2) Galr2 is primarily coupled to the Gαq-protein which activates the phospholipase C/protein kinase C pathway for inositol phosphate production. We measured G-protein activation in HEK293 cells transiently expressing Galr2, using the serum response element-luciferase (SRE-Luc) gene reporter assay[10],[37] and for a more specific monitoring of Gαq-protein activity we also measured total inositol phosphate production. […] However, some differences were observed between SRE-Luc activity and total inositol phosphate production in the rank order of potency of the tested ligands. […] Phosphorylation of extracellular signal-regulated protein kinases 1 and 2 (pErk1/2) is either G-protein or β-arrestin dependent. To distinguish Gαq-protein- and β-arrestin1/2-dependent Erk1/2 signaling, we examined ligand-stimulated Erk1/2 phosphorylation in three different HEK293 cell lines, wild type, Gαq/11-knockout, and β-arrestin1/2-knockout cells. All three ligands induced high levels of Erk1/2 phosphorylation dose-dependently in wild-type HEK293 cells.
(§3) Fig. 5 Galr2 agonists display different Gαq-protein-dependent signaling and pErk1/2. The ability of increasing concentrations of agonists to induce a SRE-Luc activity and b total inositol phosphate production. c Representative western blot showing ligand-induced phosphorylation of Erk1/2 from wild-type (HEK293 WT), Gαq/11-, and β-arrestin1/2-knockout HEK293 cells expressing Galr2 (original blots are presented in Supplementary Figure 4). pErk1/2 and total Erk levels were determined at 5 min after stimulation of different concentrations of three ligands. Western blot band intensities corresponding to each concentration were quantified using Image studio ^TM Software. […] Data are the mean ± s.e.m. values of two independent experiments
pErk1/2 was measured using western blot assay. HEK293 Gαq/11 and β-arrestin1/2-knockout cells were a kind gift from Professor Asuka Inoue, Tohoku University. The cells were seeded into 6-well plates at a density of 6 × 10^5 cells per well. The next day, they were transfected using 2 μg/well of plasmid containing human Galr2 cDNA and Lipofectamine 2000, according to the manufacturer’s instructions. Before assay, the cells were washed with phosphate-buffered saline and incubated in serum-free DMEM overnight. Dose–response experiments were performed for each ligand at 37 °C. Stimulation of the cells was terminated after 5 min of agonist stimulation by removing the medium, and the addition of 250 μl cold lysis buffer to each well. Immunoblots of phospho-Erk1/2 were obtained using 8 μg of total protein and p44/42 MAPK Erk1/2 antibody (Cell Signaling Technology Inc, catalog no. 4370 S); horseradish peroxidase-conjugated goat anti-rabbit IgG was used as a secondary antibody (Thermo Fisher Scientific). The proteins were visualized using enhanced chemiluminescence (GE Health Care). Image Studio ^TM Software was used for the pErk1/2 band density analysis.
Background: A western blot detects proteins with antibodies after separation by electrophoresis.

In assay [3] the test system is Galr2. The experiment in a line: SRE-Luc gene reporter assay. The conditions noted are these: for Log(τ/KA), SRE-Luc: HEK293 cells, Galr2, 6 h ligand treatment, operational model (Eq. 2).
Source text: as §2, §3, §1
One day before transfection, cells were seeded in 48-well plates at a density of 2.5 × 10^4 cells per well. A mixture containing 75 ng SRE-Luc reporter construct, 75 ng expression plasmid, and 0.3 μl Lipofectamine 2000 (Invitrogen) was prepared and added to each well, according to the manufacturer’s instructions. The cells were then maintained in serum-free DMEM for 16–18 h before exposure to the ligands. Approximately 48 h after transfection, the cells were treated with the respective ligands for 6 h. The cells were then lysed using 100 μl lysis buffer. The luciferase activity in 50 μl cell extract was determined using a luciferase assay system, following the standard protocol for the Synergy 2 Multi-Mode Microplate Reader Biotek.
For orientation: Reporter assays use an easily measured gene product as a stand-in for the process of interest.

Where [4] appears, read: mean ± s.e.m. of three experiments in triplicate.

For Galanin [reference compound], in assay [1], the “Log(τ/KA), Clathrin:β-arrestin2” value worked out at 8.00 ± 0.18; the “formation of Galr2–β-arrestin2–clathrin complex” value is given as “highest response”; the “ΔLog(τ/KA), Clathrin:β-arrestin2” value came out at 0.00 ± 0.20. In the assay on Galr2 [2], the “ΔLog(τ/KA), Gαq-dependent-pErk1/2” value is recorded as 0.00 ± .22 and the “Log(τ/KA), Gαq-dependent-pErk1/2” value came to 6.90 ± 0.22. In the assay on Galr2 [3] (setting [4]), the “Log(τ/KA), SRE-Luc” value amounted to 4.80±0.007. Besides, the “ΔLog(τ/KA), SRE-Luc” value in the assay on Galr2 [3] (normalized to Galanin (reference agonist), in parenthesis, mean ± s.e.m. of three experiments in triplicate) is 0.00 ± 0.007.

B1: Spexin (peptide, UniProt Q9BT56 27-116, looked up)
Spexin: APQRLLERRNWTPQAMLYLKGAQGRRFISDQSRRKDLSDRPLPERRSPNPQLLTIPEAATILLASLQKSPEDEEKNFDQTRFLEDSLLNW
modifications: Spexin
notes: endogenous peptide ligand of Galr2 and Galr3; synthesized by AnyGen
Regarding B1, in assay [1], the “Log(τ/KA), Clathrin:β-arrestin2” value was 6.22 ± 0.10; the “formation of Galr2–β-arrestin2–clathrin complex” value was “lower potency and efficacy than Galanin”; the “ΔLog(τ/KA), Clathrin:β-arrestin2” value was −1.80 ± 0.10. Further, the “pathway responsible for agonist-induced Erk1/2 phosphorylation” value in the assay on Galr2 [2] (from comparison of wild-type, Gαq/11- and β-arrestin1/2-knockout HEK293 cells) is “likely mainly attributable to the G-protein-dependent signaling pathway”. For the same molecule, in the assay on Galr2 [2], the “ΔLog(τ/KA), Gαq-dependent-pErk1/2” value is listed as 0.57 ± 0.22 and the “Log(τ/KA), Gαq-dependent-pErk1/2” value is reported as 7.47 ± 0.21. Also, in the assay on Galr2 [3] (HEK293 cells transiently expressing Galr2), the “efficacy in SRE-Luc assay” value was “substantially higher efficacy”. For the same molecule, in the assay on Galr2 [3] (setting [4]), the “Log(τ/KA), SRE-Luc” value came to 4.95±0.04.
